In patent US20230374084A1, “POTENT AND SELECTIVE INHIBITORS OF NAV1.7” (ALDEVRON, LLC, priority 2020, published 2023):
Marks after values point to notes of the source that are not given here.

Legend:
Assay type in all cases: cell-based
NaV1.7 = biological target: T1, NaV1.7 (Homo sapiens, UniProt Q15858); test: Patch-clamp electrophysiology of HEK-NaV1.7 stable cells; conditions: HEK-NaV1.7 cells, 500 nM peptide
T1 construct: expressed in transfected cells; host or cells: HEK293 (human embryonic kidney) cells stably expressing NaV1.7
Procedure: HEK-NaV1.7 stable cell lines were plated at low density on glass cover slips for 3-4 hours and subsequently transferred to the recording chamber. Recordings were performed at room temperature (20-22° C.) […] using a MultiClamp 700B amplifier (Molecular Devices, Sunnyvale, CA). The composition of recording solutions consisted of the following salts: extracellular (mM): 140 NaCl, 3 KCl, 1 MgCl2, 1 CaCl2), 10 HEPES, 10 glucose, pH 7.3; intracellular (mM): 130 CH3O3SCs, 1 EGTA, 10 NaCl, 10 HEPES, pH 7.3. Membrane capacitance and series resistance were estimated by the dial settings on the amplifier and compensated for electronically by 70-80%. Data were acquired at 20 kHz and filtered at 5 kHz prior to digitization and storage. All experimental parameters were controlled by Clampex 9.2 software (Molecular Devices) and interfaced to the electrophysiological equipment using a Digidata 1200 analog-digital interface (Molecular Devices). Voltage-dependent inward currents for HEK-NaV1.7 cells were evoked by depolarizations to test potentials between −100 mV and +60 mV from a holding potential of −70 mV followed by a voltage pre-step pulse of −120 mV (NaV1.7). Steady-state (fast) inactivation of NaV channels was measured with a paired-pulse protocol. From the holding potential, cells were stepped to varying test potentials between −120 mv (Nar 1.7) and +20 mV (pre-pulse) prior to a test pulse to −20 mV.
Current densities were obtained by dividing Na+ current (INa) amplitude by membrane capacitance. Current-voltage relationships were generated by plotting current density as a function of the […]. Conductance (GNa) was calculated by the following equation:
GNa=INa/(Vm−Erev) • where INa is the current amplitude at voltage Vm, and Erev is the Na^+ reversal potential.
To test whether given peptides (10 in total, listed below) had modulatory effects on NaV1.7-mediated Na^+ currents, we used patch-clamp electrophysiology of human embryonic kidney cells stably expressing NaV1.7 (HEK-NaV1.7).

NaV1.6 = biological target: T2, NaV1.6 (Homo sapiens, UniProt Q9UQD0); test: Whole-cell patch-clamp electrophysiology in HEK293 cells stably expressing NaV1.6 (HEK-NaV1.6); conditions: for effect on NaV1.6 currents / Peak current density, Nav1.6 (Treatment): HEK-NaV1.6 cells; for effect on NaV1.6 currents: 500 nM peptide vs control; for Peak current density, Nav1.6 (Treatment): mean ± SEM (n)
T2 construct: expressed in transfected cells; host or cells: HEK293 cells stably expressing NaV1.6
Procedure: HEK-NaV1.6 cells were plated at low density on glass cover slips for 3-4 hours and subsequently transferred to the recording chamber. Recordings were performed at room temperature (20-22° C.) after 48 h to thaw them using a MultiClamp 200B and 700B amplifier (Molecular Devices, Sunnyvale, CA). The composition of recording solutions consisted of the following salts; extracellular (mM): 140 NaCl, 3 KCl, 1 MgCl2, 1 CaCl2), 10 HEPES, 10 glucose, pH 7.3; intracellular (mM): 130 CH3O3SCs, 1 EGTA, 10 NaCl, 10 HEPES, pH 7.3. Membrane capacitance and series resistance were estimated by the dial settings on the amplifier and compensated for electronically by 70-75%. Data were acquired at 20 kHz and filtered at 5 kHz prior to digitization and storage. All experimental parameters were controlled by Clampex 9.2 software (Molecular Devices) and interfaced to the electrophysiological equipment using a Digidata 1200 analog-digital interface (Molecular Devices). Voltage-dependent inward currents for HEK-NaV 1.6 cells were evoked by depolarization to test potentials between −100 mV and +60 mV from a holding potential of −70 mV followed by a voltage pre-step pulse of −120 mV (Nar 1.6).
(§1) Current densities were obtained by dividing Na^+ current (INa^+) amplitude by membrane capacitance. Current-voltage relationships were generated by plotting current density as a function of the […].
(§2) Statistics were calculated as mean and standard error of the mean (mean SEM) using Prism 7 (La Jolla, CA). The statistical significance of observed differences among groups was determined by Student's t-test or for two group comparisons significance was tested with unpaired. Electrophysiological data analysis was performed using Clampfit 9 software (Molecular Devices).
To test whether Peptide 1, 3, 7 and 8 had any modulatory effects on NaV 1.6-mediated Na^+ currents, we used whole-cell patch-clamp electrophysiology in HEK293 cells stably expressing NaV1.6 (HEK-NaV1.6) channels; each group was either treated with peptides 1, 3, 7 and 8 (500 nM from a stock solution dissolved in H2O or DMSO) or H2O and 0.1% DMSO alone (control). […] However, peptide 7 potentiates the NaV1.6-mediated transient Na^+ currents (INa+), and were not statistically different compared to control (FIG. 17 A-C and Table 1).

human NaV1.5 channel = biological target: T3, human NaV1.5 channel (Homo sapiens, UniProt Q14524); test: Whole-cell patch-clamp electrophysiology in HEK293 cells stably expressing NaV1.5 (HEK-NaV1.5); conditions: HEK-NaV1.5 cells, 500 nM peptide vs control
T3 construct: expressed in transfected cells; host or cells: HEK293 cells stably expressing human NaV1.5 (G418 selection)
Procedure: HEK293 cells were maintained in DMEM and F-12 (Invitrogen, Carlsbad, CA), supplemented with 0.05% glucose, 0.5 mM pyruvate, 10% fetal bovine serum, 100 units/ml penicillin, and 100 μg/ml streptomycin (Invitrogen), and incubated at 37° C. with 5% CO2. HEK293 cells stably expressing the human NaV1.5 channel (hereafter referred to as HEK-NaV1.5 cells) were maintained similarly except for the addition of 500 μg/ml G418 (Invitrogen) to maintain stable NaV 1.5 expression. Cells were grown to 80-90% confluence, washed and re-plated at very low density prior to electrophysiological recordings.
as §1, §2
To test whether Peptide 1, 3, 7 and 8 had any modulatory effects on NaV 1.5-mediated Na^+ currents, we used whole-cell patch-clamp electrophysiology in HEK293 cells stably expressing NaV1.5 (HEK-NaV1.5) channels; each group was either treated with peptides 1, 3, 7 and 8 (500 nM from a stock solution dissolved in H2O or DMSO) or H2O and 0.1% DMSO alone (control).

T3 sequence (Q14524 whole entry): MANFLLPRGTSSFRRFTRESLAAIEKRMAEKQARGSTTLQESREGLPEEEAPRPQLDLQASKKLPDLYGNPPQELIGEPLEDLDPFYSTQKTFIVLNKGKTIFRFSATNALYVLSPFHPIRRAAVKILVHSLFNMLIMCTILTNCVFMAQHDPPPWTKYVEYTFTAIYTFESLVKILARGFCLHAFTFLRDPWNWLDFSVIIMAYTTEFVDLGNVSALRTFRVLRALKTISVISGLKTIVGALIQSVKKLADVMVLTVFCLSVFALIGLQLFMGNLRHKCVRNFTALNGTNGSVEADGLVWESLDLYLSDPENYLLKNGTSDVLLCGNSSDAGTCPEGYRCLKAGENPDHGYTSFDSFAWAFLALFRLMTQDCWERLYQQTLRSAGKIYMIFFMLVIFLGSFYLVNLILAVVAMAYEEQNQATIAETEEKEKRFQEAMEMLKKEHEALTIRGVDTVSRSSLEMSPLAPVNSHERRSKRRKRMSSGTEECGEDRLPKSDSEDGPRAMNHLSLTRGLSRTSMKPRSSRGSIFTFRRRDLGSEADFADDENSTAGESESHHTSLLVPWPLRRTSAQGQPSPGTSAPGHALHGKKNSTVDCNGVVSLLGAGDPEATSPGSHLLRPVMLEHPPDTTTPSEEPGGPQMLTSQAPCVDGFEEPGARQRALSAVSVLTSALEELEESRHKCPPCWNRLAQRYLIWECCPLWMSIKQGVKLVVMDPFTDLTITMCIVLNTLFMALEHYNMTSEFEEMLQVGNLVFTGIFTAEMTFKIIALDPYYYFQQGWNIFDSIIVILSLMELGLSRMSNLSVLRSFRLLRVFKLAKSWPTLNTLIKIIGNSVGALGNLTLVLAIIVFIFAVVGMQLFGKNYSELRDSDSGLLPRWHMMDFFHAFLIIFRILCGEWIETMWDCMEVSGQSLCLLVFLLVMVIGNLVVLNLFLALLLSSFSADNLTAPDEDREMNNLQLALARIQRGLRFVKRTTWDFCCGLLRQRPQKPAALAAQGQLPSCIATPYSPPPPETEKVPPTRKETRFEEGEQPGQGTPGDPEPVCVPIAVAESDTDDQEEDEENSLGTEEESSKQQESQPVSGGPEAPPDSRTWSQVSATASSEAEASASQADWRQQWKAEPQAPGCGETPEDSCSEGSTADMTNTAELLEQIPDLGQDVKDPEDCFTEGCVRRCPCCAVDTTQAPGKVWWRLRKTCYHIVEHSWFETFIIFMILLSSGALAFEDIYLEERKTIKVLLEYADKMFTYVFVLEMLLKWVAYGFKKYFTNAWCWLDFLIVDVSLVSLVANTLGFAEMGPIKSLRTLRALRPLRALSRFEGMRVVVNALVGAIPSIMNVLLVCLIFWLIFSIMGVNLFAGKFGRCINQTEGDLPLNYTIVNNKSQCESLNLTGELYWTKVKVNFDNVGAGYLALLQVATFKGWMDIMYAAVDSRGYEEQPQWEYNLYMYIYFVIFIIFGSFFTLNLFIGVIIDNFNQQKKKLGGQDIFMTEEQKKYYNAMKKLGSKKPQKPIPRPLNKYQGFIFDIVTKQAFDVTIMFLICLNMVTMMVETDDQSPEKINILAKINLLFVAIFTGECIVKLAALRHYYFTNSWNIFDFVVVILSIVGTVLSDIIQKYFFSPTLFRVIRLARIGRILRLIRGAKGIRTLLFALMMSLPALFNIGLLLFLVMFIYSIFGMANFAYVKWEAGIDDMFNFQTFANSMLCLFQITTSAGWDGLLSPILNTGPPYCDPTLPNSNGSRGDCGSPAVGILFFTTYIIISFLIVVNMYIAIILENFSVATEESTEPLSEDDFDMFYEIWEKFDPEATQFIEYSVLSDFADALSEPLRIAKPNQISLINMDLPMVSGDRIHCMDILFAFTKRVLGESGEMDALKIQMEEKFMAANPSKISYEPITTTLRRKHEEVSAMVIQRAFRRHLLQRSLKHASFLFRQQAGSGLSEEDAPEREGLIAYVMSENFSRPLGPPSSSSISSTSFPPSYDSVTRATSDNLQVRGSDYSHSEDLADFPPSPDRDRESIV
T1 sequence (Q15858 whole entry): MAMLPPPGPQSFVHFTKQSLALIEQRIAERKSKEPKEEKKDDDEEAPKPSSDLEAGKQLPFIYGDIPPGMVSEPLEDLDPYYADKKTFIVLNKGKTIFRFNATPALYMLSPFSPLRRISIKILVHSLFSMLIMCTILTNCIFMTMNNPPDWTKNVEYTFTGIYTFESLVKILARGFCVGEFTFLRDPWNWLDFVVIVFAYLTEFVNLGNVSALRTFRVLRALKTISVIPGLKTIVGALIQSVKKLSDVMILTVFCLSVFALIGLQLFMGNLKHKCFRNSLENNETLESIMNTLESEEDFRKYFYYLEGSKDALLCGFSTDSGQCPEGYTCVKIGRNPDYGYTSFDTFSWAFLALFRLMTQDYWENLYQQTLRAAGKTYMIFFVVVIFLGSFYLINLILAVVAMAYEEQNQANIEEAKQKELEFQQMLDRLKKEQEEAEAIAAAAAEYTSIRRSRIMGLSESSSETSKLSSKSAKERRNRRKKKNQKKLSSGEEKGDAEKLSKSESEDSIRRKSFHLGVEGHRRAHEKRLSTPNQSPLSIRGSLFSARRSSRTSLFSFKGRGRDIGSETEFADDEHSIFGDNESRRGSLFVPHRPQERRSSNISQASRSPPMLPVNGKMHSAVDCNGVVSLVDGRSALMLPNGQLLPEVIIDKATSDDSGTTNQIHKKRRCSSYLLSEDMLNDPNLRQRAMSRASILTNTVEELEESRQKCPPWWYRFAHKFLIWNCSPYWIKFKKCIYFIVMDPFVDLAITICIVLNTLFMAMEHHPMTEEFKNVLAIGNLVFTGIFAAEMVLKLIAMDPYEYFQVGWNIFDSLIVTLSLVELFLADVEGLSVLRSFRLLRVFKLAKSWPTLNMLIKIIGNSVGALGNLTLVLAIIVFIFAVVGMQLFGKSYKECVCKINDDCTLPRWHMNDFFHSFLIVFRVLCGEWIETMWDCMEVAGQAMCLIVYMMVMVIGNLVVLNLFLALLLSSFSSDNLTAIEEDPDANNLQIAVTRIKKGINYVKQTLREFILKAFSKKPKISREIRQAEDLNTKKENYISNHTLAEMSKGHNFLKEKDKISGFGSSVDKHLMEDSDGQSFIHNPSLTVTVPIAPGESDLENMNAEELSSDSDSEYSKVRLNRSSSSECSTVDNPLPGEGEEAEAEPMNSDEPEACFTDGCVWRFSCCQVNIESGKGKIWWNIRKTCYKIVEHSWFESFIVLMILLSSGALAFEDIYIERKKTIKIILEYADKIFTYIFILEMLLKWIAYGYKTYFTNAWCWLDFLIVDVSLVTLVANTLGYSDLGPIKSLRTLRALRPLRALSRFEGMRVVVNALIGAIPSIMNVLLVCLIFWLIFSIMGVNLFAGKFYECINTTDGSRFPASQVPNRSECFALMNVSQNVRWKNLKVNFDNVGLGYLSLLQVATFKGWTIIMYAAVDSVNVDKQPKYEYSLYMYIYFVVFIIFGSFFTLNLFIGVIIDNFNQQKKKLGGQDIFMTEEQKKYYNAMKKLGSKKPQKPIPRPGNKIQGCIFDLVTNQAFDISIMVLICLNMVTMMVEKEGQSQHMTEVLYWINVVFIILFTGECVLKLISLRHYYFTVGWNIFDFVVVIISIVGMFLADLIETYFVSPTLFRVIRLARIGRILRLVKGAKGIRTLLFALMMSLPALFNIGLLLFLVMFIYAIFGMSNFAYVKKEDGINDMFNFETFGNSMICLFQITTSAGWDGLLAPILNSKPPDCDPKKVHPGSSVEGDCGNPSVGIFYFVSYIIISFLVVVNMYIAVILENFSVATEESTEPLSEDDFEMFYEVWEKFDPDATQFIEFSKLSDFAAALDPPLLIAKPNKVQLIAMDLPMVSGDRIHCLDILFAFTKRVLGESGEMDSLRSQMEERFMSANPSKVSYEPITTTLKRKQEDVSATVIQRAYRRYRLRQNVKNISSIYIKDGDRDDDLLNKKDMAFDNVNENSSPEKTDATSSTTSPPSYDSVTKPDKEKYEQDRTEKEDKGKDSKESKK

Sequence | blockage of the NaV1.7 sodium channel (NaV1.7) | peak current density, treatment (text of b104) (NaV1.6; 500 nM peptide, control 194.86, n=8, treatment n=7, sentence cites FIG. 14A-C) | effect on NaV1.6 currents (NaV1.6) | effect on NaV1.6 currents (NaV1.6; listed as peptide 8) | Peak current density, Nav1.6 (Treatment) (NaV1.6; 500 nM peptide) | effect on NaV1.5 currents (human NaV1.5 channel) | effect on NaV1.6 currents (NaV1.6; listed as peptide 3) | effect on NaV1.6 currents (NaV1.6; listed as peptide 1)
DCLGFMRKCLSTTDLDDDWNCCRPNLVCSRTHKWCKYVF (Synthetic Peptide 8) | substantial blockage | 104.78 | no effects | no statistically significant effect | 59.75 ± 5.4 (6)^NS | no effects |  | 
DCLGLFRKCIPDMLKCCRFNLVCSRLHKWCKYVF (Synthetic Peptide 3) | substantial blockage |  | suppressed |  | 25.32 ± 4.1 (6)^b | suppressed | suppresses | 
IGEKVTIRLITSTNINDDFNIYQQKPGEPPKLL (Synthetic Peptide 7) | substantial blockage |  | potentiates |  | 121.14 ± 16.6 (10)^c | no effects |  | 
SDEIPATFGGGTDAGL (Synthetic Peptide 1) | substantial blockage |  | suppressed |  | 25.65 ± 5.2 (13)^a | no effects |  | suppresses
